Key:
[1] = target: T1, Human IL-33 Flag®His (human); assay: cell-based or functional assay
T1 chain: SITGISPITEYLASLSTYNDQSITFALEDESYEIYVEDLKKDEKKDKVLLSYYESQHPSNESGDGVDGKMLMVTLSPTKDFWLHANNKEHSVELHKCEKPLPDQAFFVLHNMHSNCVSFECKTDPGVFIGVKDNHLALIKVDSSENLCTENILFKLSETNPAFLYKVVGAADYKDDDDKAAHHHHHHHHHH

[2] = target: T1, Human IL-33 Flag®His; assay: HTRF competition, IgG titrated against biotinylated human ST2-Fc
Protocol: (§1) The ability of anti-IL-33 antibodies to inhibit the binding of FLAG®-His tagged IL-33 to the ST2 receptor was assessed in a biochemical HTRF® (Homogeneous Time-Resolved Fluorescence, Cisbio International) competition assay, the principles of which are described above.
(§2) Activity of purified IgG preparations were determined by competing a dilution series of the purified IgG against biotinylated human or mouse ST2.Fc for binding to FLAG® His-tagged human, cynomolgus or mouse IL-33.
(§3) Purified or unpurified anti-IL-33 antibody samples were tested for inhibition of FLAG®-His tagged IL-33 binding ST2-Fc by adding 10 microlitres of each dilution of antibody test sample to a 384 well low volume assay plate (Costar 3676). Next, a solution containing 4 nM biotinylated human or mouse ST2-Fc and 20 nM streptavidin XL665 detection (Cisbio International, 611SAXLB) was prepared and 5 microlitres of the mix added to the assay plate. This was followed by the addition of 5 microlitres of a solution containing 1.2 nM FLAG®-His tagged human, cynomolgus or mouse IL-33 combined with 1.72 nM anti-FLAG® cryptate detection (Cisbio International, 61FG2KLB). All dilutions were performed in assay buffer comprised of Dulbeccos PBS (Invitrogen, 14190185) containing 0.8 M potassium fluoride (BDH 103444T) and 0.1% BSA (Sigma A9576). Assay plates were incubated for 2 hour at room temperature followed by 16 hour at 4° C. before reading time resolved fluorescence at 620 nm and 665 nm emission wavelengths using an EnVision plate reader (Perkin Elmer).

[3] = target: T2, Cynomolgus IL-33 Flag®His (cynomolgus monkey); assay: as above
T2 construct: C-terminal FLAG 10xHis tag, E. coli; also called Mature Cynomolugus IL-33; cyno IL-33 FH
T2 chain: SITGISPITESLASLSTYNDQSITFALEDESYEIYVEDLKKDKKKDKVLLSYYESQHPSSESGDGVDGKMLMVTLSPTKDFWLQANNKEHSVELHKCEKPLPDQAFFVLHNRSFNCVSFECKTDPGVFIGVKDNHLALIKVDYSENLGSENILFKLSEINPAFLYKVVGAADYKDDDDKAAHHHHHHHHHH
Protocol: as §1, §2, §3

[4] = target: T1, Human IL-33 Flag®His; assay: SPR BIAcore 2000, IgG captured on Protein G', IL-33 as analyte, 1:1 Langmuir
Protocol: (§4) The binding affinity of purified IgG samples of exemplary binding members to human and cynomolgus IL-33 was determined by surface plasmon resonance using BIAcore 2000 biosensor (BIAcore AB) essentially as described by Karlsson et al., J Immunol Methods 145(1-2):229-40 (1991). In brief, Protein G′ (Sigma Aldrich, P4689) was covalently coupled to the surface of a CM5 sensor chip using standard amine coupling reagents according to manufacturer's instructions (BIAcore). The protein G′ surface was used to capture purified anti-IL-33 antibodies via the Fc domain to provide a surface density of approximately 290 RU per cycle. Human or cynomolgus IL-33 prepared in HBS-EP buffer (BIAcore AB), at a range of concentrations, between 600 nM and 18.75 nM, were passed over the sensor chip surface. The surface was regenerated using two 10 mM Glycine washes of pH 1.7 and pH 1.5 between each injection of antibody. The resulting sensorgrams were evaluated using BIA evaluation 3.1 software and fitted to a 1:1 Langmuir binding model, to provide relative binding data. The binding results (KD, Ka, and Kd) for antibodies IL330002 and IL330004 binding to human or cynomolgus IL-33 are shown in Table 8.

[5] = target: T2, Cynomolgus IL-33 Flag®His; assay: as above
Protocol: as §4

[6] = target: T3, His10/Avi Cyno IL-33 (cynomolgus monkey); assay: HTRF epitope competition, scFv titrated; competitor DyLight labelled 33v20064 IgG
T3 construct: also called Cynomolgus 10His Avitag IL-33; biotinylated His Avi cynomolgus IL-33
T3 chain: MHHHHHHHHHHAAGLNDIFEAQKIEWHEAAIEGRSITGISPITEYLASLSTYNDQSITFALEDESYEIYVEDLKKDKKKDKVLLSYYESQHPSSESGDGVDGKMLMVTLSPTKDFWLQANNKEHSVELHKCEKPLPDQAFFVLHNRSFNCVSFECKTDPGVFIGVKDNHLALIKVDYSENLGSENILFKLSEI
Protocol: (§5) This was followed by the addition of 2.5 microlitres of a solution containing 0.8 nM biotinylated human IL-33-01 combined with 0.75 nM streptavidin cryptate detection (Cisbio International, 610SAKLB) for the human assay or a solution containing 4 nM biotinylated cynomolgus IL-33 combined with 1.5 nM streptavidin cryptate detection (Cisbio International, 610SAKLB) for the cynomolgus assay. All dilutions were performed in assay buffer containing 0.8 M potassium fluoride (VWR, 26820.236) and 0.1% bovine serum albumin (BSA, PAA, K05-013) in Dulbeccos PBS (Invitrogen, 14190185). Assay plates were incubated for 1 hour at room temperature and time resolved fluorescence was read at 620 nm and 665 nm emission wavelengths using an EnVision plate reader (Perkin Elmer). Data were analysed by calculating the 665/620 nm ratio followed by the % Delta F values for each sample. The 665/620 nm ratio was used to correct for sample interference using Equation 1. The % Delta F for each sample was then calculated using Equation 2. The negative control (non-specific binding) was defined by replacing biotinylated IL-33 combined with streptavidin cryptate detection with streptavidin cryptate detection only. The % Delta F values were subsequently used to calculate % specific binding as described in Equation 3.
(§6) Unique scFv were expressed again in bacteria and purified by affinity chromatography (as described in WO01/66754). Purified anti-IL-33 antibody samples were tested for potency of inhibition by competing a dilution series of the purified preparation against DyLight labelled 33v20064 IgG or DyLight labelled 33_640027 IgG for binding to biotinylated His Avi IL33-01, biotinylated His Avi IL33-11 or biotinylated His Avi cynomolgus IL-33. Methods are as described in the previous section.

[7] = target: T4, His10/Avi Human IL33-11 (human); assay: as above
T4 construct: C208S, C259S mutant (already in the entry), N-terminal His10/Avitag; also called His-Avi mutant IL-33; SCCS
T4 chain: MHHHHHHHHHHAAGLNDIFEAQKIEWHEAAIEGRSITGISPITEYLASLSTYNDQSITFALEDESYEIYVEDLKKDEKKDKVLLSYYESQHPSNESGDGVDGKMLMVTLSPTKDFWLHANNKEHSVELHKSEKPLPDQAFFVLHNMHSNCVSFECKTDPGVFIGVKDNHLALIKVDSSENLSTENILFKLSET
Protocol: as §5, §6

[8] = target: T5, His10/Avi Human IL33-01 (human); assay: as above
T5 construct: Wild type mature IL-33 with N-terminal 10xHis, Avitag and Factor Xa site; biotinylated by BirA on the Avitag where used biotinylated; reduced form unless treated; also called N-terminal His Avi IL-33; His-Avi human IL-33 wild type
T5 chain: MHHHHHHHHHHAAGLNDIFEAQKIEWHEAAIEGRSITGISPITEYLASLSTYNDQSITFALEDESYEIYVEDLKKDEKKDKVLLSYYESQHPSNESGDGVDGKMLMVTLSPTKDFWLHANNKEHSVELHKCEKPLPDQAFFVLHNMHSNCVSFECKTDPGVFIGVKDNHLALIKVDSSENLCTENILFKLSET
Protocol: as §5, §6

[9] = target: T3, His10/Avi Cyno IL-33; assay: HTRF epitope competition, scFv titrated; competitor DyLight labelled 33_640027 IgG
[10] = target: T4, His10/Avi Human IL33-11; assay: as above
[11] = target: T5, His10/Avi Human IL33-01; assay: as above
[12] = target: T6, Human ST2 ECD-Flag-his10 (human, UniProt Q01638 19-328); assay: SPR Biacore T100, 25 C, biotinylated human IL-33 on streptavidin C1 chip, ST2-Flag-His10 as analyte
T6 construct: also called Human ST2 Flag His; FLAG® His-tagged human ST2
T6 sequence: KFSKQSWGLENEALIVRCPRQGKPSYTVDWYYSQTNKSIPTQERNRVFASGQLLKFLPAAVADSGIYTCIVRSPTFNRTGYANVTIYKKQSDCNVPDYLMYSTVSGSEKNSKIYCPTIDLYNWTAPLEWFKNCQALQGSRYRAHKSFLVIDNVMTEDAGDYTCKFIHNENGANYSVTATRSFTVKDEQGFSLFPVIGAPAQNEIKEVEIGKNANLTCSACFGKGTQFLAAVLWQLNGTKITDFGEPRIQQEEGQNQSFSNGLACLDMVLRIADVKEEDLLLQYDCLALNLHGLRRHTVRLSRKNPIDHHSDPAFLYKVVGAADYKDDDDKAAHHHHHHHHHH
Protocol: Fab fragments were generated by papain cleavage from full length IgG1 and purified by SEC. […] Streptavidin was covalently immobilised to a C1 chip surface using standard amine coupling techniques at a concentration of […] in 10 mM Sodium acetate pH 4.5. […] Recombinant, enzymatically biotinylated human IL-33 (produced in-house) was titrated onto the streptavidin chip surface at […] in HBS-EP+ buffer to enable ˜30 RUs of Fab binding at saturation (Rmax). This low level of analyte binding ensured minimal mass transport effects.
The IL-33 Fab was serially diluted from 5 nM to 78 pM in HBS-EP+ buffer and flowed over the chip at 50 μl/min, with 3 minutes association and up to 30 minutes dissociation. Multiple buffer only injections were made under the same conditions to allow for double reference subtraction of the final sensorgram sets, which were analysed using the BiaEval software (version 2.0.1). The chip surface was fully regenerated with pulses of 3M MgCl₂.
The affinity of ST2-Flag-His10 (SEQ. ID no. 650) expressed in HEK-EBNA cells for human IL-33 was determined by BIACORE™ using the same methods described above.

B1: IL330002 IgG1 (antibody, V domains shown)
VH: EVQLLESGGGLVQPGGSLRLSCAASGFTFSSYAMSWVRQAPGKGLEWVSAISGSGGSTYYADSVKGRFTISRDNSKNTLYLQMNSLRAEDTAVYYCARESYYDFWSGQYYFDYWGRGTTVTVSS
VL: SYELTQPPSLSVSPGQTASITCSGDKLGDKYVSWYQQKPGQSPILVIYHDNKRPSGIPERFSGSNSGNTATLTISGTQAMDEADYYCQAWDSNAGYVFGTGTKVTVL
notes: Human IgG1, lambda constant
With B1 the “IC50, human ST2 transfected HeLa NFkB luciferase reporter assay” value [1] was 226 nM, the IC50 [2] was 27 nM and the IC50 [3] was 42 nM. The Kd [4] was 35 nM, the koff [4] was 0.00218 s⁻¹ and the kon [4] was 61600 M⁻¹ s⁻¹. The Kd [5] was 189 nM, the koff [5] was 0.00442 s⁻¹ and the kon [5] was 23400 M⁻¹ s⁻¹.

B2: 33_640027 scFv (scFv, V domains shown)
VH: EVQLLESGGDLVQPGGSLRLSCAASGFTFSSYAMSWVRQAPGKGLEWVSAIGGSGGSTYYADSVKGRFTISRDNSKNTLYLQMNSLRAEDTAVYYCARDLWMQLWGGGLRYPFGYWGQGTMVTVSS
VL: LPVLTQPPSVSVSPGQKASITCSGERIGDKYAAWYQQKPGQSPILVIYRDTKRPSGIPERFSGSNSGNTATLTISGTQDMDEADYYCQVWDSSTGVFGGGTKVTVL
notes: Single chain Fv
An IC50 [6] of 8.2 nM, an IC50 [7] of 0.6 nM and an IC50 [8] of 0.4 nM were found for B2 in this work. For the same binder, the IC50 [9] was 38 nM, the IC50 [10] was 2.9 nM and the IC50 [11] was 3.8 nM.

B3: IL330071 IgG1 (antibody, V domains shown)
VH: EVQLVESGAEVKQPGASVKVSCKASGYTFTSYGISWVRQAPGQGLEWMGWISAYNGNTNYAQKLQGRVTMTTDTSTSTAYMELRSLRSDDTAVYYCARRGFYHDAFDIWGRGTTVTVSS
VL: AIQLTQSPSSLSASVGDRVTITCRASQGISNYLAWYQQKPGKVPKLLIYAASTLQSGVPSRFSGSGSGTEFTLTISSLQPDDFATYYCQQYNSYSVTFGQGTKVEIK
notes: Human IgG1, lambda constant
In the case of B3, the “IC50, human ST2 transfected HeLa NFkB luciferase reporter assay” value [1] is reported as 226 nM, the IC50 [2] is reported as 59 nM and the IC50 [3] is reported as 375 nM.

B4: Recombinant human IL-33 (construct not named in the example) (ligand, UniProt O95760 112-270, looked up)
chain: SITGISPITEYLASLSTYNDQSITFALEDESYEIYVEDLKKDEKKDKVLLSYYESQHPSNESGDGVDGKMLMVTLSPTKDFWLHANNKEHSVELHKCEKPLPDQAFFVLHNMHSNCVSFECKTDPGVFIGVKDNHLALIKVDSSENLCTENILFKLSET
notes: also called Recombinant, enzymatically biotinylated human IL-33 (produced in-house); IL-33 (200 nM)
A Kd [12] of 2.9 pM, a koff [12] of 4.35e-05 s⁻¹ and a kon [12] of 1.52e+07 M⁻¹ s⁻¹ were found for B4 in this work.
